“And” between values parts separate entries of the source, which are not always exact repeats. Identical values can stand only once.
T1: recombinant human IL-27 (human, UniProt Q14213 21-229; Q8NEV9 29-243)
T1 construct: Bought from R&D Systems (Cat. 2526-IL); also called hIL-27; rhIL-27
T1 sequence 1: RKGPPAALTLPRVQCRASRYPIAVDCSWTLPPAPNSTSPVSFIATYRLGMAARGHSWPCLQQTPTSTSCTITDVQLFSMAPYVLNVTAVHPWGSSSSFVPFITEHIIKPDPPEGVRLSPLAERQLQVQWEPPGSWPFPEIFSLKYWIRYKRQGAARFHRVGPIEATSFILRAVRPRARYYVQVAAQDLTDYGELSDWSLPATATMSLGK
T1 sequence 2: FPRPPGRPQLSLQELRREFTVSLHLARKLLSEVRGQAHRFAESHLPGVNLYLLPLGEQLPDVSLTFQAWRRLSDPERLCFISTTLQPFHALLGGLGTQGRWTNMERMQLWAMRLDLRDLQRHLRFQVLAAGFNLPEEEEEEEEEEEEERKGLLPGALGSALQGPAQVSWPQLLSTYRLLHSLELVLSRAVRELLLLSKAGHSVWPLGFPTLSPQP


Columns and labels:
[1] = target: T1, recombinant human IL-27; assay: column 'Affinity hIL-27 (M)', property (i); method not given, paragraph 885 names SPR (BIACORE 2000)
[2] = target: T1, recombinant human IL-27; assay: SPR, hIL-27 on CM5 chip, bivalent analyte model (kd1)
Protocol: (§1) The antibodies were further characterized by surface plasmon resonance (SPR). Kinetic experiments were performed on a Biacore T200 (GE Healthcare, Uppsala, Sweden). All experiments were run at 25° C. with HBS-P+ running buffer (pH 7.4) (GE Healthcare, Little Chalfont, UK) using hIL-27 (R&D Systems, Abingdon, UK). Human IL-27 (hIL-27) antigen was captured on a CM5 chip to ˜16 RU. Immobilization was carried out at a protein concentration of 1 μg/mL in 10 mM acetate buffer pH 5.0. A three point, three-fold dilution range from 3.3 nM to 30 nM of antibody diluted in HBS-P+ buffer without regeneration between each concentration was used. The association phase for the three injections of increasing concentrations of antibody was monitored for 75 seconds each time and a single dissociation phase was measured for 250 seconds following the last injection of antibody. Regeneration of the hIL-27 surface was conducted using a single injection of 2M MgCl₂ for 120 s. Multiple repeats (n=4) of the chimeric antibody were performed throughout the assay to check the stability of the surface and analyte over the kinetic cycles.
(§2) Both 1:1 binding and bivalent analyte models were used to analyze the data due to the bivalent nature of the antibody. The results from the 1:1 binding model analysis are summarized in Table 4 and results from the bivalent analyte model are summarized in Table 5.

[3] = target: T1, recombinant human IL-27; assay: SPR (Biacore T200), hIL-27 on CM5 chip, single cycle, 1:1 model
Protocol: as §1, §2

[4] = target: T1, recombinant human IL-27; assay: SPR, hIL-27 on CM5 chip, bivalent analyte model (ka1)
Protocol: as §1, §2

[5] = target: T1, recombinant human IL-27; assay: SPR, hIL-27 on CM5 chip, bivalent analyte model
Protocol: as §1, §2

| Binder | Kd [1] [nM] | koff [2] | Kd [3] | Relative KD to Ab7.1 [3] | koff [3] [s⁻¹] | kon [3] [M⁻¹ s⁻¹] | kon [4] | ka2 [5] | kd2 [5] [s⁻¹] |
| --- | --- | --- | --- | --- | --- | --- | --- | --- | --- |
| SRF583 (antibody, V domains shown) VH: QLQLQESGPGLVKPSETLSLTCTVSGGSISSSSYYWGWIRQPPGKGLEWIGSISYSGSTYYNPSLKSRVTISVDTSKNQFSLKLSSVTAADTAVYYCAREEYSFSYLDYWGQGTTVTVSS VL: DIQMTQSPSSVSASVGDRVTITCRASQGISSWLAWYQQKPGKAPKLLIYAASNLQSGVPSRFSGSGSGTDFTLTISSLQPEDFATYYCQQALLFPPTFGGGTKVEIKR | 1.98 |  |  |  |  |  |  |  |  |
| Ab7.3 (antibody, human IgG1, kappa, V domains shown, human IgG1/kappa) VH: EVKLVESGGGLVQPGGSLRLSCAASGFTFTSYSMSWVRQAPGKGLEWVAYISYDGGSAYYPDTVKGRFTISRDNSKKTLYLQMSSLKSEDTAMYYCARHGDYDDDDAMDYWGQGTSVTVSS VL: DIQMTQSPASLSASVGETVTITCRASENIYSYLAWYQQKQGKSPQLLVYNAETLTEGVPSRFSGSGSGTQFSLKINSLQPEDFGNYYCQHHYGTPLTFGAGTKLDLKR |  | 0.0022 s⁻¹ | 0.96 nM | 0.9 | 0.0015 | 1.5e+06 | 750000 M⁻¹ s⁻¹ | 0.029 1/RUs | 0.063 |
| Ab7.17 (antibody, human IgG1, kappa, V domains shown, human IgG1/kappa) VH: EVQLVESGGGLVQPGGSLRLSCAASGFTFTSYSMSWVRQAPGKGLEWVAYISYDGGSAYYPDTVKGRFTISRDNSKNTLYLQMNSLRAEDTAVYYCARHGDYDDDDAMDYWGQGTLVTVSS VL: DIQMTQSPSSLSASVGDRVTITCRASENIYSYLAWYQQKPGKAPKLLVYNAETLTEGVPSRFSGSGSGTDFTLTISSLQPEDFANYYCQHHYGTPLTFGQGTKLEIKR |  | 0.0029 s⁻¹ | 1.5 nM | 1.5 | 0.0019 | 1.3e+06 | 580000 M⁻¹ s⁻¹ | 0.039 1/RUs | 0.09 |
| Ab7.12 (antibody, human IgG1, kappa, V domains shown, human IgG1/kappa) VH: EVKLVESGGGLVQPGGSLRLSCAASGFTFTSYSMSWVRQAPGKGLEWVAYISYDGGSAYYPDTVKGRFTISRDNSKKTLYLQMNSLRAEDTAVYYCARHGDYDDDDAMDYWGQGTLVTVSS VL: DIQMTQSPSSLSASVGDRVTITCRASENIYSYLAWYQQKQGKAPKLLVYNAETLTEGVPSRFSGSGSGTDFTLTISSLQPEDFANYYCQHHYGTPLTFGQGTKLDIKR |  | 0.0026 s⁻¹ | 1.2 nM | 1.2 | 0.0018 | 1.5e+06 | 750000 M⁻¹ s⁻¹ | 0.11 1/RUs | 0.29 |
| Ab7.8 (antibody, human IgG1, kappa, V domains shown, human IgG1/kappa) VH: EVQLVESGGGLVQPGGSLRLSCAASGFTFTSYSMSWVRQAPGKGLEWVAYISYDGGSAYYPDTVKGRFTISRDNSKNTLYLQMSSLKSEDTAMYYCARHGDYDDDDAMDYWGQGTLVTVSS VL: DIQMTQSPSSLSASVGDRVTITCRASENIYSYLAWYQQKQGKAPKLLVYNAETLTEGVPSRFSGSGSGTDFTLTISSLQPEDFANYYCQHHYGTPLTFGQGTKLDIKR |  | 0.0027 s⁻¹ | 1.5 nM | 1.4 | 0.0018 | 1.3e+06 | 580000 M⁻¹ s⁻¹ | 0.064 1/RUs | 0.15 |
| Ab7.10 (antibody, human IgG1, kappa, V domains shown, human IgG1/kappa) VH: EVQLVESGGGLVQPGGSLRLSCAASGFTFTSYSMSWVRQAPGKGLEWVAYISYDGGSAYYPDTVKGRFTISRDNSKNTLYLQMSSLKSEDTAMYYCARHGDYDDDDAMDYWGQGTLVTVSS VL: DIQMTQSPSSLSASVGDRVTITCRASENIYSYLAWYQQKPGKAPKLLVYNAETLTEGVPSRFSGSGSGTDFTLTISSLQPEDFATYYCQHHYGTPLTFGQGTKLEIKR |  | 0.0025 s⁻¹ | 1.4 nM | 1.4 | 0.0018 | 1.3e+06 | 600000 M⁻¹ s⁻¹ | 0.084 1/RUs | 0.2 |
| Ab7.1 (antibody, human IgG1, kappa, human IgG1/kappa chimera from HEK293 EBNA cells; also called chimeric Ab7.1 antibody; chimeric antibody) heavy: not shown light: DIQMTQSPASLSASVGETVTITCRASENIYSYLAWYQQKQGKSPQLLVYNAETLTEGVPSRFSGSGSGTQFSLKINSLQPEDFGNYYCQHHYGTPLTFGAGTKLDLKRTVAAPSVFIFPPSDEQLKSGTASVVCLLNNFYPREAKVQWKVDNALQSGNSQESVTEQDSKDSTYSLSSTLTLSKADYEKHKVYACEVTHQGLSSPVTKSFNRGEC |  | 0.0022 s⁻¹ | 1 nM | 1 | 0.0015 | 1.4e+06 | 670000 M⁻¹ s⁻¹ | 0.021 1/RUs | 0.046 |

The remaining lines, values ahead:

| Kd [1] [nM] | koff [2] | Kd [3] | Relative KD to Ab7.1 [3] | koff [3] [s⁻¹] | kon [3] [M⁻¹ s⁻¹] | kon [4] | ka2 [5] | kd2 [5] [s⁻¹] | Binder |
| --- | --- | --- | --- | --- | --- | --- | --- | --- | --- |
| 94.4 |  |  |  |  |  |  |  |  | SRF541 (antibody, V domains shown) VH: QVQLQESGPGLVKPSETLSLTCTVSGGSISSYYWSWIRQPPGKGLEWIGSIYYSGSTNYNPSLKSRVTISVDTSKNQFSLKLSSVTAADTAVYYCAREVDRDDVAFDIWGQGTMVTVSS VL: not shown |
| 0.74 |  |  |  |  |  |  |  |  | SRF573 (antibody, V domains shown) VH: QVQLVQSGAEVKKPGSSVKVSCKASGGTFSSYAISWVRQAPGQGLEWMGGIIPIFGTANYAQKFQGRVTITADESTSTAYMELSSLRSEDTAVYYCARSYYSSRWHYYYYMDVWGKGTTVTVSS VL: DIQMTQSPSSVSASVGDRVTITCRASQGISSWLAWYQQKPGKAPKLLIYAASNLQSGVPSRFSGSGSGTDFTLTISSLQPEDFATYYCQQADDLPLTFGGGTKVEIKR |
|  | 0.0027 s⁻¹ | 1.2 nM | 1.2 | 0.0018 | 1.5e+06 | 700000 M⁻¹ s⁻¹ | 0.035 1/RUs | 0.087 | Ab7.2 (antibody, human IgG1, kappa, V domains shown, human IgG1/kappa) VH: EVKLVESGGGLVQPGGSLKLFCAASGFTFTSYSMSWVRQTPEKRLEWVAYISYDGGSAYYPDTVKGRFSISRDNAKKTLYLQMSSLKSEDTAMYYCARHGDYDDDDAMDYWGQGTSVTVSS VL: DIQMTQSPSSLSASVGDRVTITCRASENIYSYLAWYQQKQGKAPKLLVYNAETLTEGVPSRFSGSGSGTDFTLTISSLQPEDFANYYCQHHYGTPLTFGQGTKLDIKR |
|  | 0.0027 s⁻¹ | 1.2 nM | 1.2 | 0.0018 | 1.5e+06 | 680000 M⁻¹ s⁻¹ | 0.028 1/RUs | 0.068 | Ab7.5 (antibody, human IgG1, kappa, V domains shown, human IgG1/kappa) VH: EVKLVESGGGLVQPGGSLRLSCAASGFTFTSYSMSWVRQAPGKGLEWVAYISYDGGSAYYPDTVKGRFTISRDNSKKTLYLQMSSLKSEDTAMYYCARHGDYDDDDAMDYWGQGTSVTVSS VL: DIQMTQSPSSLSASVGDRVTITCRASENIYSYLAWYQQKPGKAPKLLVYNAETLTEGVPSRFSGSGSGTDFTLTISSLQPEDFANYYCQHHYGTPLTFGQGTKLEIKR |
|  | 0.0028 s⁻¹ | 1.5 nM | 1.5 | 0.0019 | 1.3e+06 | 590000 M⁻¹ s⁻¹ | 0.043 1/RUs | 0.11 | Ab7.9 (antibody, human IgG1, kappa, V domains shown, human IgG1/kappa) VH: EVQLVESGGGLVQPGGSLRLSCAASGFTFTSYSMSWVRQAPGKGLEWVAYISYDGGSAYYPDTVKGRFTISRDNSKNTLYLQMSSLKSEDTAMYYCARHGDYDDDDAMDYWGQGTLVTVSS VL: DIQMTQSPSSLSASVGDRVTITCRASENIYSYLAWYQQKPGKAPKLLVYNAETLTEGVPSRFSGSGSGTDFTLTISSLQPEDFANYYCQHHYGTPLTFGQGTKLEIKR |
|  | 0.0026 s⁻¹ and 0.0025 s⁻¹ | 1.2 nM and 1.3 nM | 1.2 | 0.0018 | 1.5e+06 | 720000 M⁻¹ s⁻¹ and 710000 M⁻¹ s⁻¹ |  |  | Ab7.4 (antibody, human IgG1, kappa, V domains shown, human IgG1/kappa) VH: EVKLVESGGGLVQPGGSLRLSCAASGFTFTSYSMSWVRQAPGKGLEWVAYISYDGGSAYYPDTVKGRFTISRDNSKKTLYLQMSSLKSEDTAMYYCARHGDYDDDDAMDYWGQGTSVTVSS VL: DIQMTQSPSSLSASVGDRVTITCRASENIYSYLAWYQQKQGKAPKLLVYNAETLTEGVPSRFSGSGSGTDFTLTISSLQPEDFANYYCQHHYGTPLTFGQGTKLDIKR |
| 0.52 |  |  |  |  |  |  |  |  | SRF414 (antibody, V domains shown, also called SRF414-A; SRF414-B) VH: QVQLQQWGAGLLKPSETLSLTCAVYGGSFSRYYWSWIRQPPGKGLEWIGSIDYSGSTEYNPSLKSRVTISVDTSKNQFSLKLSSVTAADTAVYYCARDGVYYDSSDLGFDIWGQGTMVTVSS VL: not shown |

Reference: US20190382474A1 (SURFACE ONCOLOGY, published 2019)
